For data set [1], the system named is human embryonic kidney cell line 293 stably transfected with PDX-1 or mutated PDX-1 P47D. Briefly: relative CAT expression in 293 PDX-1 vs 293 P47D cells. The conditions noted are these: 293 stably transfected with PDX-1 or PDX-1 P47D; compared to RIP and three HIP fragments. The class given is cell-based. The text has this: FIG. 6 is a plot of the assay of the relative CAT expression being driven by BL-1 promoter compared to RIP and three HIP fragments in human embryonic kidney cell line 293, (which have no PDX-1 expression), stably transfected with PDX-1 or mutated PDX-1 P47D.

Data set [2] relates to HPDE cells. Description: CAT expression in HPDE cells (PDX-1 negative, PDX-1 co-transfection dose curve). The class given is cell-based, human. As for the experimental part:
FIG. 7 is a plot of the assay of the BL-CAT driving CAT expression in response to increasing doses of PDX-1 in human pancreatic ductal epithelial cells, which have very low expression of PDX-1.
FIG. 8 is a plot of another assay of the BL-CAT driving CAT expression in response to increasing doses of PDX-1 in human pancreatic ductal epithelial cells, which have very low expression of PDX-1.
(§1) In our methodological approach, activity and specificity of BLs were determined by CAT and mCherry assays in PDX-1+PC and HEK293 cell lines vs PDX-1—human pancreatic ductal epithelial (HPDE) cells. […] Cytotoxicity was determined by MTS assay. 1M PANC-1 cells were injected ip into 65 SCID mice; two weeks later, mice received BL1-vTK, RIP-vTK, CMV-vTK, or pVAX1 empty vector control (35 ug liposomal DNA/mouse/tail vein followed by two weeks of GCV (40 mg/kg, ip, bid; N=15/group). Glucose levels were measured on days 14 and 60 after treatment. Tumor volume was measured in each mouse. Statistical analysis was performed via paired T test; p<0.05=significant.

Data set [3] concerns PANC-1. Description: relative CAT expression in PANC-1 cells. The class given is cell-based, human. The conditions noted are these: PANC-1 (high PDX-1); compared to RIP and HIP 1400. As for the experimental part:
FIG. 4 is a plot of the assay of the relative CAT expression being driven by BL-1 promoter compared to RIP and HIP 1400 promoter constructs in human pancreas cancer cell line, PANC-1, which have high expression of PDX-1, and benign human pancreatic ductal epithelial cell line HPDE, which have no expression of PDX-1 and are a negative control cell line.
as §1

Data set [4] deals with MIA PaCa2. Briefly: relative CAT expression in MIA PaCa2 vs MIA PaCa2 PDX-1 cells. Format: cell-based, human. The conditions noted are these: MIA PaCa2 (very low PDX-1) vs MIA PaCa2 stably transfected with PDX-1; compared to RIP and three HIP fragments. An excerpt: FIG. 5 is a plot of the assay of the relative CAT expression being driven by BL-1 promoter compared to RIP and three HIP fragments in human pancreas cancer cell line, MIA PaCa2, which have very low PDX-1 expression vs MIA PaCa2 cells stably transfected with PDX-1.

Data set [5] concerns PDX-1 stably expressing PC and HEK cells. Description: CAT and mCherry reporter assays in PDX-1+ PC and HEK293 cell lines. Format: cell-based, human. As for the experimental part:
as §1

Data set [6] relates to Beta TC-6 cells. Briefly: CAT assay for promoter activity in Beta TC-6 cells. Format: cell-based, mouse. Conditions: compared to human insulin promoter fragments. As for the experimental part:
FIG. 2 is a plot of the CAT assay for HIP activity in Beta TC-6 cells.
FIG. 3 is a plot of the CAT assay for HIP promoter construct expression activity BL promoter construct expression activity in Beta TC-6 cells.
as §1

B1: BL-1: synthetic 550 bp promoter, SEQ ID NO: 1; three repeated C2/E2/G2/A3/CRE1 and three repeated GG2/A2/C1/E1/A1 motifs (nucleic acid)
DNA: GACAGCAGCGCAAAGAGCCCCGCCCTGCAGCCTCCAGCTCTCCTGGTCTAATGTGGAAAGTGGCCCAGGTGAGGGCTTTGCTCTCCTGGAGACATTTGCCCCCAGCTGTGAGCAGGGACAGGTCTGGCCACCGGGCCCCTGGTTAAGACTCTAATGACCCGCTGGTCCCAGGGACAGGTCTGGCCACCGGGCCCCTGGTTAAGACTCTAATGACCCGCTGGTCCCAGGGACAGGTCTGGCCACCGGGCCCCTGGTTAAGACTCTAATGACCCGCTGGTCCGGAAATGGTCCGGAAATTGCAGCCTCAGCCCCCAGCCATCTGCCGACCCCCCCACCCCAGGCCCTAATGGGCGGAAATGGTCCGGAAATTGCAGCCTCAGCCCCCAGCCATCTGCCGACCCCCCCACCCCAGGCCCTAATGGGCGGAAATGGTCCGGAAATTGCAGCCTCAGCCCCCAGCCATCTGCCGACCCCCCCACCCCAGGCCCTAATGGGCGGTAGGGGAGATGGGCTCTGAGACTATAAAGCCAGCGGGGGCCCAGCAGCCCTC
As for B1, the “relative CAT expression” value was “far more effective than RIP or HIP” in data set [1]; “to a far greater degree than HIP and RIP” in data set [3]; “more effective than RIP or HIP” in data set [4]. In data set [2] (HPDE cells, co-transfection of PDX-1), the “CAT expression in response to increasing doses of PDX-1” value was “dose dependent manner”. Moreover, the CAT expression result in data set [2] (PDX-1-negative cell lines) is listed as “No CAT expression was detected”. The “activity of expressing reporter genes” value in data set [5] (among the BL promoters, CAT and mCherry assays) is reported as “highest activity”. Further, the “CAT and mCherry reporter expression” value in data set [5] (vs CMV-driven expression) is reported as “equal to CMV-driven expression”; in data set [5] (vs RIP-driven expression, p<0.05) it was “significantly greater than RIP-driven expression”. For the same molecule, the “expression of CAT” value in data set [6] is “equal to or better than human insulin promoter fragments”.

The values are drawn from US9644205B2, “Synthetic promoter for modulating gene expression” (The Regents of the University of California, priority 2012, dated 2017).
